# Data: the nanobody polyreactivity screen of Harvey et al. (2022)
# Assay: yeast display, Sf9 membrane polyspecificity reagent, FACS + sequencing; frameworks hold sequencing errors
# Outline: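 A nanobody's polyreactivity label depends on the gate it was sorted from. Yeast display cells were stained with 10% biotinylated, detergent-solubilized Sf9 membrane reagent for 1 hour at 4 °C, enriched on streptavidin microbeads and sorted by FACS. The low and high (top ~1%) gates were set on anti-HA fluorescence for expression and streptavidin fluorescence for reagent binding.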
sequence,measurement,value
QVQLVESCGGLFQAGGSLRLSCAPSGRTSWVYAMGWYRQAPAKERELVASIRKRTVVYADSVKGRFTISRENAKNTVYLQMNSLKPEETAVYYCNTDYSSTSQWRAANYWGQGTQVTVSS,polyreactivity (PSR sort gate),high polyreactivity
QVELVESGGGLVQAGGSLRLSCAASGRISYLYTMGWYRQAPGKERELFAASRWRDGSTYYADSVKGRFTISRDNAKTTVYLQMNSLKPEDTAVYFCGATPVGFYWYDYWGQGTQVTVSS,polyreactivity (PSR sort gate),low polyreactivity
QVQLVESRGGLVQAGGSLRLSCAASGFTFSAYAMGWYRQAPGKERELVAAISWSGSRTYYADSVKGRFTISRDNAKNTVYLQMNSQKPEDTAVYYCAKEPYDTFGFYDYDYWGQGTQVTVSS,polyreactivity (PSR sort gate),low polyreactivity
QVQLVESGGGLVQAGGSLRLSCAASGFTFRWYAMGWYRQAPGKERELVAAISTSGGSTYYADSVKGRFTITRDNAKNTVYLQMNSLKPEDTSVYYCNRVNNYPTRKYDYWGQGSQVTVSS,polyreactivity (PSR sort gate),high polyreactivity
QVQLVESGGGLVQAGGSLRLSCAASGFIFYYYTMVWYRQAPGKERELVAAIRTGGGTNYADSVKGRFTISRDNAKNTVYLQRNSLKPEDTAVYYCAKGRQGVSYLTGTYGGRDYWGQGTQVTVSS,polyreactivity (PSR sort gate),low polyreactivity
QVQLVESGGGLVQAGGSLRLSCAASGRILWSYPMGWYRQAPGKEREFVATINRSGGNTHYADSVKGRFTISRDNAKNTVYLQMYSLKPEDTAVYYCAALNLVPYGYQGLRYYYWGQGTQVTVSS,polyreactivity (PSR sort gate),high polyreactivity
QVQLEESGGGLVQAGGSLRLSCAASGRTFRTYTMGWYRQAPGTERELVAANSKRGSSTYYADSVKGRFTISRDNAKNTVYLQMNSLKPEDTAVYYCAARSWLSNSPYGYWGQGTQVTVSS,polyreactivity (PSR sort gate),high polyreactivity
QVQLVESGGGLVQAGGSLRLSCAASGRTFTVYAMGWYRPAPGKERELVAAISSGGITYYADSVKGRFTISRDNAKNTVYLQMNSLKPEDTAVYYCNTKSGKARYEFGYWGQGTQVTVSS,polyreactivity (PSR sort gate),low polyreactivity
QVQLVESGGGLVQAGGSLRLSCAASGSTFHRYTMGWYRQAPGKERELLAAISWSGGSTYYADSVKGRFTISRDNAKNTVYLQMNSLKPEDTAVYYSNKVTVYRFRGDSWGQGTQVTVSS,polyreactivity (PSR sort gate),high polyreactivity
QVQLVESGGGLVQAGGSLRLSCAASGGTFYGYAMGWYRQAPGKERELVAAINYRGGRTYYADSVKGRFTISRDNAKNTVYLQMNSLKPEDTAVYDCAATSDRLDGYDYWGQGTQVTVSS,polyreactivity (PSR sort gate),high polyreactivity
QVQLVESGGGLVQAGGSLRLSCAASGITFRGNAMGWYRQAPGKERELVATISSGGITNYADSVKGRFTISRDNAKNTVYLQMNSLKPEDTAVYSCAADLFVHKPRYQYSFDYWGQGTQVTVSS,polyreactivity (PSR sort gate),low polyreactivity
QVQLVESGGGLVQAGGSLRLSCAASGSTFGLYAMGWYRQAPGKERELVAAIRWSGGRTYYADSVKGRFTISRDNAKNTVYLQMNSLKPEDTAVYYCAARSLRSKNDYWGQGTQVTVSS,polyreactivity (PSR sort gate),high polyreactivity
QVQLVESVGGLVQAGGSLLLSCAASGGIFWVYALGWYRQAPGKVRELVAAISYDTTSTYYADSVKGRFTISRDNAKNTVYLQMNRLKPEDTAVYYCNKTTLLTVEYDYGGQGTQVTVSS,polyreactivity (PSR sort gate),low polyreactivity
QVQLVESGGGLVQAGGSLRLSCAASGSIFDIYGMGWYRQAPGKERELVASISRGAGSTNYADSVKGRFTISRDNAKNTVYLQMNSLKPEDTAVYYCAAEVYVPDYFQHKFDVEYEYWGQGTQVTVSS,polyreactivity (PSR sort gate),low polyreactivity
QVQLVESGGGLVQAGGSLRLSCAASGRTFAGYAMGWYRHAPGKETELVAAITTSGGRTYYADSVKGRFTISRDYAKNTVYLQMNSLKPEDTAVYYCNVASKGRYARYAAEYGYWGQGTQVTVSS,polyreactivity (PSR sort gate),high polyreactivity
QVQLVESGGGLVQAGGSLRLSWAASGRIIHYNVMGWYRQPPGKERDLVAAIRGGGRSTYYADSVKGRFTISRDNAKNTVYLQMNSLKPEDTAVYYCAKSLSQNTYYHQGYYDDNYWGQGTQVTVSS,polyreactivity (PSR sort gate),low polyreactivity
QVQLVESGGGLVQAGGSLRLSCAASGRTFLSNAMGWYRQAPGKERELVADITFRGGNTYYADSVKGRFTISRGNAKNTVYLQMNSLKPEDTAVYYCAVLGYGRLSRVRYGYWGQGTQVTVSS,polyreactivity (PSR sort gate),high polyreactivity
QVQLVESGGGLVQAGGSLRLSCAASGSTFRYNAMGWYRQAPGKERELVAAITSSGGRTYYADSVKGRFTISRDNAKKTVYLQRISLKPEDTAVYYCDAYAYYHTGDDYWGQGTQVTVSS,polyreactivity (PSR sort gate),high polyreactivity
QVQLVESGGGLVQAGGSLRLSCAASGSTFNPYAMAWYRQAPGKEREFVAAISWRGGSTYYADSVKGRFTISRDNAKNTVYLQMNSLKPEDTAVYYCAARRLYSHTTSGRGYWGQGTQVTVSS,polyreactivity (PSR sort gate),high polyreactivity
QVQLVESGGGLVQAGGSLRLSCAASGRIFRINGMGWYRQAPGKEREFVAAITSGGGTYYADSVKGRFTISRDNAKNTVYLQMNSLKPEDTAVYYCAAPSYRTRYYYWGQGTQVTVSS,polyreactivity (PSR sort gate),high polyreactivity
QVQLVESGGGLVQAGGSLRLSCAASGNTFNPNAMGWYRQAPGKERELVAVIRFRGGSTYYADSVKGRFTISRDNAKNTVYLQMNSLKPEDTAVYYCNVYRGRYLYAWRPRGYWGQGTQVTVSS,polyreactivity (PSR sort gate),high polyreactivity
QVQLVESGGGLVQAGGSLRLSCAASGSTFYINAMGWYRQAPGKEREFVAAITSRGGSTYYADSVKGRFTISRDNAKNTVYLQMNSLKPEDTAVYYCAARNFLSRRGTYDYWGQGTQVTVSS,polyreactivity (PSR sort gate),high polyreactivity
QVQLVESGGGIVQSGGSLRLICAASGGIFKYNAMGWYRQAPGKERELVAAINYSGGRTYYADSVKGRFTISRDNAKNTVYLQMNSLKPEDTAVYYCNALTRGHTGQPYTYDYWGQGTQVTVSS,polyreactivity (PSR sort gate),high polyreactivity
QVQHVESGGGLVQAGGSLRLSCAASGIIFLFYAMGWYRQARGKERELVAAITGAGSTNYADSVKGRFTISRDNAKNTVYLQMNRLKPEDTAVYYCAARHYARYDYWGQGTQVTVSS,polyreactivity (PSR sort gate),low polyreactivity
QVQLVESGGGLVQAGGSLRLSCASSGFTFRYYAMGWYRQAPGKERELVAAITGNGGSTYYADSVKGRFTISRDNAKNTVYFQMNSLKPEDTAVYYCNKPYFTASGDRFGYWGQVTQVTVSS,polyreactivity (PSR sort gate),high polyreactivity
QLQRVESGGGLVQAGGSLRLSCAASGSIFNENAMGWYIQAPGKERELVAGIDSGGNTYYADSVKGRFTISRDNAKNTVYLQMISLKPEDTAVYYCAKRGVPVRASATFLFEFDYWGQGTQVPVSS,polyreactivity (PSR sort gate),low polyreactivity
QAQLVESGGGLVQAGGSLRLSCAASGSIFVAYDKGWYREAPWKERELVAAINFDGTSTYYADSVKGRFTISRDNAKNTVYLQMNSLKPEDTAVYYCNKRVSPTFTGQYDYWGQGTQVTVSS,polyreactivity (PSR sort gate),low polyreactivity
QEQLQETGGGLVQAGGSLRLICASSGSIFFVYGMGWSRQAPGKERELVAGINAGTNTNYADSVRGRFTISRDNAKYTVHLQMNSLKPEDTAVYYCAADGNGYQAHEYWGQGTQVTVSS,polyreactivity (PSR sort gate),high polyreactivity
QVQLVESGGRLVQAGGSLRLSCAASGSIFNAYAMGWYRQAPGKEREFVAVITSNGGITYYADSVKGRFTISRDNAKNTVYLQMNSLKPEDTAVYYCAAYEIYYEFDSWGQGTQVTVSS,polyreactivity (PSR sort gate),low polyreactivity
QIQLVESGGGLVQAGGSLRLSCAASGSIFSKYAMGWYRQAPGKERELVAAISAGGGSTYYADSVKGRFTISRDNAKNTVYLQMNSLKPEDTAVYYCAARSRFRFDYWVQGTQVTVSS,polyreactivity (PSR sort gate),high polyreactivity
QVQLVESGGGLVQAGGSLRLSCAASGIIFSYYAMGWYRQAPGKERELVAAITYSGGSTYYADSVKGRFTISRDNAKNTVYLQMNSLKPEDTAVYYCDAEDYYYYSWYEYSYYYWGQGTQVTVSS,polyreactivity (PSR sort gate),high polyreactivity
QVQLVESGGGLVQAGGSLRLSCAASGIIFAKYAMGWYRQAPGKERELVAAISRSGGSTYYADSVKGRFTISRDNAKNTVYLQMNSLKPEDTAVYYCAAAYYRDGGDFDYWGQGTQVTVSS,polyreactivity (PSR sort gate),high polyreactivity
QVQLVESGGGLVQAGGSLRLSCAASGIIFDEYAMGWYRQAPGKERELVAVIDWSGGSTYYADSVKGRFTISRDNAKNTFFLQMNSLKPEDTAVYYCAAEDDSTTPEFDYWGQGTQVTVSS,polyreactivity (PSR sort gate),low polyreactivity
QVQLVESGGGLVKAGGSLRLSCAASGITFSYYTMGWYRQAPGKEREFVATISQSSGSTYYADSVKGRFTISRDNAKNTVYLQMNSLKPEDTAVYYCNARRDYEWESWNVDDDYWGQGTQVTVSS,polyreactivity (PSR sort gate),high polyreactivity
QVQLVESGRGIVQAGGSLRLSCAASGIIFGGNAMVWYRQAPGKERELVARIRWGGGSTYYADSVKGRFTISRDNAKNTVYLQMNSLKPEDTAVYYCARTTSYLTSTRRYYYWGQGTQVTVSS,polyreactivity (PSR sort gate),high polyreactivity
QVQLVESAGGLVQAGGSLRLSCAASGFIFSRNAMGWYRQAPGKERELVAAISGTGGRTYYADSVKGRFTLSRDNAKNTVYLQMNSLKTEDTAVYYCAADKRIGGFGYWGQGTQVTVSS,polyreactivity (PSR sort gate),high polyreactivity
QVQLVESGGVLVQAVGSLRLSCAASGRIFYPYVMGWYRPAPGKERELVASITSGGGTYYADSVKGRFTISRDNAKNTVYLQMNSLKPEDTAGYYCNALAIWSEDWDHWISYADDYSGQGTQVTVSS,polyreactivity (PSR sort gate),low polyreactivity
QVQLVESGGGLVQAGGSLRLSCAASGSIFPGNALGWYRQAPGKERELVAVIDFSGASTYYADSVKGRFTISRDNAKNTVYLQMNRLKPEDTADYWGQGTQVTVSS,polyreactivity (PSR sort gate),low polyreactivity
QVQLVESGGGLVQAGGSLRLSCAASGRTFYTNGMGWYRQAPGKEREFVAGITYRGGGTYYADSVKGRFTISRDNAKNTVYLQMNSLKPEDTAVYYCNTRWILGRRFYYWGQGTQVTVSS,polyreactivity (PSR sort gate),high polyreactivity
QVQLVESGGGLVQAGGSLRLSCAAYGSTFGWYTMGWYRQAPGKERELVATISYGGGITNYADSVKGRFTISRDNAKITVYLQMNSLKPEDTADYDCAVDNTGRSWPYDYWGQGTQVTVSS,polyreactivity (PSR sort gate),low polyreactivity
QVQLVESGGGFVQAGGSLRLSCAASGSTFGYYVMGWYRQAPGKERELVAAISASGGSTYYADSVKGRFTISRDNAKHTVYLQMNSLKPEDTAVYYCAAGGYYVRYDYWGQGTQVTVSS,polyreactivity (PSR sort gate),high polyreactivity
QVQLVETGGGLVQAGGSLRISCAASGRIFGWYAMGWYRQAPGKERELVAGINYGGGRTYYADSVKGRFTISRDNAKNTVYLQMNSLKPEDTAVYYCAAGISGHYYWGQGTQVTVSS,polyreactivity (PSR sort gate),high polyreactivity
QVQLVESGGGLVQAGGSLRLSCAASGSIFFPYTMGWYRQAPGKERELVARISLGGGRTYYADSVKGRFTISRDNAKNTVYLQMNSLKPEDTAVYYCNRGGWYAYYWGQGTQVTVSS,polyreactivity (PSR sort gate),high polyreactivity
